# Source: patent US20240052042A1 (Novartis, published 2024)
# T1: hNPR1-ANP complex (human, UniProt P01160 124-151, limits assumed)
# T1 construct: hNPR1 antigen in the presence of ANP; also called hNPR1 + 100 nM ANP
# T1 sequence: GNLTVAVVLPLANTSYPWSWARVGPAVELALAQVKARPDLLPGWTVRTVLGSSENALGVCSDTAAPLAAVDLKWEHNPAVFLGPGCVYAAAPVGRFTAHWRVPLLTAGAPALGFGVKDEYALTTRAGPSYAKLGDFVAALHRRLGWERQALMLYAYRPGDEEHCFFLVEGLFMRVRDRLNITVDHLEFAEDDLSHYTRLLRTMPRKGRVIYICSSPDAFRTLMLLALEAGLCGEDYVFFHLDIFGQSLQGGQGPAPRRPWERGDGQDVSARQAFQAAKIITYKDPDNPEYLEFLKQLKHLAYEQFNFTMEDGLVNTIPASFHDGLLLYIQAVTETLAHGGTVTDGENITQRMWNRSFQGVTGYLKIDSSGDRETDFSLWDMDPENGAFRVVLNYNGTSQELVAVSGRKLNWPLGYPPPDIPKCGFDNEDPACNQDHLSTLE
# T1 sequence (peptide): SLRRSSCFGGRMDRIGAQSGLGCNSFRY
# T2: rNPR1-ANP complex (rat, UniProt P01160 124-151 (human entry), limits assumed)
# T2 construct: rNPR1 antigen in the presence of ANP; also called rNPR1 + 100 nM ANP
# T2 sequence: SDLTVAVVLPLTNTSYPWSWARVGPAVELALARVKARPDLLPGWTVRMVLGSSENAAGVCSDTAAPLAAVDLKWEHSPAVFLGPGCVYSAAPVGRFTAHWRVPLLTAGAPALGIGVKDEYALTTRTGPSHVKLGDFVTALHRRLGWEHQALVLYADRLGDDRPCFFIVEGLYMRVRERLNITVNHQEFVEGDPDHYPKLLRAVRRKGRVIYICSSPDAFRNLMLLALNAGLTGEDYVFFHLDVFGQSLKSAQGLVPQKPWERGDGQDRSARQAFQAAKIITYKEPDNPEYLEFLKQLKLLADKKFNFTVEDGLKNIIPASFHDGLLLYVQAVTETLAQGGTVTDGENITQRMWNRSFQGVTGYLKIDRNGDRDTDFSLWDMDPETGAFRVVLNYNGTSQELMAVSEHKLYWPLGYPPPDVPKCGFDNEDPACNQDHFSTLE
# T2 sequence (peptide): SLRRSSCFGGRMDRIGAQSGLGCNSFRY
# T3: human Natriuretic Peptide Receptor 1 (hNPR1) (human, UniProt P16066 33-473, limits assumed)
# T3 construct: pannings used NPR1-hFc; also called NPR1-hFc
# T3 sequence: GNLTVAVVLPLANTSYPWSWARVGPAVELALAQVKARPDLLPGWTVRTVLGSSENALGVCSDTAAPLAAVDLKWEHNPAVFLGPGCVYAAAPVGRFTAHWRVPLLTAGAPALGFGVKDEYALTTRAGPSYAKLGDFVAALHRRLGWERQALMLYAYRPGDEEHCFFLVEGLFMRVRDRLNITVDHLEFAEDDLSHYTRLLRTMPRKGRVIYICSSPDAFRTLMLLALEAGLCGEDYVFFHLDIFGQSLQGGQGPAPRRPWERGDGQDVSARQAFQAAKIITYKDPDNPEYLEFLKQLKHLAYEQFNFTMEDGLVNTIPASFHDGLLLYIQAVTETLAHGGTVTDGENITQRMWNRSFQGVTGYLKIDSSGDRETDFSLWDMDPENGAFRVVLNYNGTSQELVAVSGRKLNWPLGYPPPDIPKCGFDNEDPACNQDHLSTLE
# T4: human NPR1 on CHO-K1 cells (human, UniProt P16066 33-1061)
# T4 construct: also called hNPR1 CHO K1; human NPR1 expressing CHO-K1 cells
# T4 sequence: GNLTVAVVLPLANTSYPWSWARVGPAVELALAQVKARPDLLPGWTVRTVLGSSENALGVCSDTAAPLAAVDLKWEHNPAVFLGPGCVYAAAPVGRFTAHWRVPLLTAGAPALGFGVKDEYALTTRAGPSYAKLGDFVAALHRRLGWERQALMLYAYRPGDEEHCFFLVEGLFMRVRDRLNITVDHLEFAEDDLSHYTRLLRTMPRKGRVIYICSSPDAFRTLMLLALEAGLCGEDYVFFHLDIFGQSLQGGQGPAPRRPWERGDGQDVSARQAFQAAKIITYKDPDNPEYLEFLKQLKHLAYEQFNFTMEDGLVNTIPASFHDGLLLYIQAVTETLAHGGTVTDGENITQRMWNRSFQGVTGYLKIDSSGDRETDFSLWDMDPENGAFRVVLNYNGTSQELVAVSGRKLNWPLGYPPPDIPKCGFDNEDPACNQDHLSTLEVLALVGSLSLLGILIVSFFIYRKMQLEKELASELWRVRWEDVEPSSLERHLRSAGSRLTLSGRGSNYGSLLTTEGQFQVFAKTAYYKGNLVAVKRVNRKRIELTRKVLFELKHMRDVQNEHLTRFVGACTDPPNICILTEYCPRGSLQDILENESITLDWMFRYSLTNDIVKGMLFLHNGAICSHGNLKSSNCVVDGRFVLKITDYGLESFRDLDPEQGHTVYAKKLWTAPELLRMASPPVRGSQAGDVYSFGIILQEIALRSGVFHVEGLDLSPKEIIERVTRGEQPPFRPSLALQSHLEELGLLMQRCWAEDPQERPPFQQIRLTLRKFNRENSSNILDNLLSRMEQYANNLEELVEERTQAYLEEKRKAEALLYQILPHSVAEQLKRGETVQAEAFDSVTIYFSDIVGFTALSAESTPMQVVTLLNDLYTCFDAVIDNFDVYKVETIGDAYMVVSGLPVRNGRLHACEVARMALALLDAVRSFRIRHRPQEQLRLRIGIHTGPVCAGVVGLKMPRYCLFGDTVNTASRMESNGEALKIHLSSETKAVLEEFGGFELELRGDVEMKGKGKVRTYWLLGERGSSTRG
# T5: human NPR1 on CHO-K1 cells in the presence of ANP (human, UniProt P01160 124-151)
# T5 construct: also called hNPR1 CHO K1 + 100 nM ANP
# T5 sequence: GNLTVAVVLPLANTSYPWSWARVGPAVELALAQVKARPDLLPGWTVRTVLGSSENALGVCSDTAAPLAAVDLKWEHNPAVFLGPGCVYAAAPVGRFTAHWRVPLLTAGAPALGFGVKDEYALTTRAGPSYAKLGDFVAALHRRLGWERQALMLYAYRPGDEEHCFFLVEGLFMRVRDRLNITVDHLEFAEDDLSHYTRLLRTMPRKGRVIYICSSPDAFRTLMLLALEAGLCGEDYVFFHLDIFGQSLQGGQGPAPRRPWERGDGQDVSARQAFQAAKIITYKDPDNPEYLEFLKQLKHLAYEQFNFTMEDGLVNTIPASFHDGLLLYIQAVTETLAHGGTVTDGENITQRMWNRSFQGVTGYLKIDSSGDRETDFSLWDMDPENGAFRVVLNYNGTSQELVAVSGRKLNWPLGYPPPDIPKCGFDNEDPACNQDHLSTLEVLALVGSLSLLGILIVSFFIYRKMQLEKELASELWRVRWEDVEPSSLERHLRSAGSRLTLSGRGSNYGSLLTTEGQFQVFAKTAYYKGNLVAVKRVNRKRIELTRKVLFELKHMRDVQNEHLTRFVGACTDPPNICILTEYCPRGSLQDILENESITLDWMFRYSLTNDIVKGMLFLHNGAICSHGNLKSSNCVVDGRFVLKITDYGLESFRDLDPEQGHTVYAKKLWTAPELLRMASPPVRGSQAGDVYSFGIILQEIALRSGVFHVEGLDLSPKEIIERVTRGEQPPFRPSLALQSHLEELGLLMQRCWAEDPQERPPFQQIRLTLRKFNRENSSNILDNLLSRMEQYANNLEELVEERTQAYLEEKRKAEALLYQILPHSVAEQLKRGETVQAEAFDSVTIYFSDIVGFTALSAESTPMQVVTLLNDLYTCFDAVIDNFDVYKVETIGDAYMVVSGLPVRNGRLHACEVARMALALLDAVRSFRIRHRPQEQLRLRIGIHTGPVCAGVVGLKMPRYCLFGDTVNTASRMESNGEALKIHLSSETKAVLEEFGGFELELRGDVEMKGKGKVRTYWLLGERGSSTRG
# T5 sequence (peptide): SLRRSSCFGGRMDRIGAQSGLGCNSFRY
# T6: rat NPR1 (rNPR1) (rat, UniProt P18910 29-469, limits assumed)
# T6 construct: Soluble antigen
# T6 sequence: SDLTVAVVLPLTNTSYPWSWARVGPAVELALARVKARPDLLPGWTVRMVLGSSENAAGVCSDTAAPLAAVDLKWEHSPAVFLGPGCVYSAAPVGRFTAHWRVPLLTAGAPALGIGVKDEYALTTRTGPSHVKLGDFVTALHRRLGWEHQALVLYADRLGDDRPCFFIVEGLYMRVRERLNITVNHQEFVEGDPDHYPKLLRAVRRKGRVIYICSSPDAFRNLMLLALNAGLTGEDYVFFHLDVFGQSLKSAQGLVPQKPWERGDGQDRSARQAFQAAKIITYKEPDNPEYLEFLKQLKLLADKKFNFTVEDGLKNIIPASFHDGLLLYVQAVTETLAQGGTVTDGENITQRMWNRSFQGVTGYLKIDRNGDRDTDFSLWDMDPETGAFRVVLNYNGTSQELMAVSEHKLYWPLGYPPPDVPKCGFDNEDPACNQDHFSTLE
# Experiments:
# hNPR1-ANP complex = molecular target: T1, hNPR1-ANP complex; experiment: ELISA, 1 µM IgG; design: unit not given here
# rNPR1-ANP complex = molecular target: T2, rNPR1-ANP complex; experiment: ELISA, 1 µM IgG; design: unit not given here
# [1] = molecular target: T3, human Natriuretic Peptide Receptor 1 …; experiment: ELISA, 1 µM IgG; design: unit not given here
# [2] = molecular target: T4, human NPR1 on CHO-K1 cells; experiment: flow cytometry, hNPR1 CHO-K1 cells, IgG
# [3] = molecular target: T5, human NPR1 on CHO-K1 cells in the …; experiment: flow cytometry, hNPR1 CHO-K1 cells, IgG
# [4] = molecular target: T4, human NPR1 on CHO-K1 cells; experiment: cell-based or functional assay
# [5] = molecular target: T5, human NPR1 on CHO-K1 cells in the …; experiment: flow cytometry (FL2-H) on hNPR1 CHO-K1 cells with saturating ANP, IgG titrated; control parental CHO-K1 [panel YY01]
# [6] = molecular target: T5, human NPR1 on CHO-K1 cells in the …; experiment: flow cytometry (FL2-H) on hNPR1 CHO-K1 cells with saturating ANP, IgG titrated; control parental CHO-K1 [Cont.), panel XX08]
# [7] = molecular target: T3, human Natriuretic Peptide Receptor 1 …; experiment: ELISA, IgG titrated on coated antigen, fluorescence [Cont.]
# rat NPR1 (rNPR1) = molecular target: T6, rat NPR1 (rNPR1); experiment: as above
Binder,ELISA binding at 1 µM IgG (hNPR1-ANP complex),ELISA binding at 1 µM IgG (rNPR1-ANP complex),ELISA binding at 1 µM IgG [1],flow cytometry S/BG at 1 µM IgG [2] [S/BG],flow cytometry S/BG at 1 µM IgG [3] [S/BG],"cGMP conc [nM] at 1 µM IgG, +0.075 nM ANP [4] [nM]","cGMP conc [nM] at 1 µM IgG, without ANP [4] [nM]",EC50 (read off the curve) [5] [nM],EC50 (read off the curve) [6] [nM],EC50 (read off the curve) [7] [nM],EC50 (read off the curve) (rat NPR1 (rNPR1)) [nM]
"YY01 (IgG format) (antibody, V domains shown, also called YY01_LALA) VH: EVQLVESGGGLVQPGGSLRLSCAASGFTFSSYWISWVRQAPGKGLEWVANIKQSGSETYYVESVKGRFTISRDNAKNSLYLQMNSLRAEDTAVYYCARSLRRRSTEHAGFDVWGQGTLVTVSS VL: DIQMTQSPSSLSASVGDRVTITCRASQGISNYLAWYQQKPGKVPKLLIYAASTLQSGVPSRFSGSGSGTDFTLTISSLQPEDVATYYCQQADKFPYTFGQGTKVEIKR",76,50,54,35,21,14,5,~0.2,,,
"XX08 (antibody, V domains shown, x axis reads IgG conc; [nM]; also called XX08 (IgG format)) VH: EVQLLESGGGLVQPGGSLRLSCAASGFTFNTHYIHWVRQAPGKGLEWVSSIGGQGGMTLYADSVKGRFTISRDNSKNTLYLQMNSLRAEDTAVYYCARERGYVYYHMFDPWGQGTLVTVSS VL: DIVLTQSPATLSLSPGERATLSCRASQSITRNYLAWYQQKPGQAPRLLIYGASSRATGIPARFSGSGSGTDFTLTISSLEPEDFAVYYCQQHSMYPRTFGQGTKVEIKR",,,,,,,,,~2,~20,~20
